US12715927

Assays:
[1] = target: extracellular domain of human LEPR with an N-terminal myc-myc tag, GPI-anchored on HEK293 cells (human) (UniProt P48357); experiment: FACS, secondary alone, HEK293/hLEPR-GPI, no added Leptin
[2] = target: extracellular domain of human LEPR with an N-terminal myc-myc tag, GPI-anchored on HEK293 cells (human) (UniProt P48357); experiment: FACS, secondary alone, HEK293/hLEPR-GPI, with 1 µM Leptin

extracellular domain of human LEPR with an N-terminal myc-myc tag, GPI-anchored on HEK293 cells (human), sequence (P48357 22-839 limits assumed): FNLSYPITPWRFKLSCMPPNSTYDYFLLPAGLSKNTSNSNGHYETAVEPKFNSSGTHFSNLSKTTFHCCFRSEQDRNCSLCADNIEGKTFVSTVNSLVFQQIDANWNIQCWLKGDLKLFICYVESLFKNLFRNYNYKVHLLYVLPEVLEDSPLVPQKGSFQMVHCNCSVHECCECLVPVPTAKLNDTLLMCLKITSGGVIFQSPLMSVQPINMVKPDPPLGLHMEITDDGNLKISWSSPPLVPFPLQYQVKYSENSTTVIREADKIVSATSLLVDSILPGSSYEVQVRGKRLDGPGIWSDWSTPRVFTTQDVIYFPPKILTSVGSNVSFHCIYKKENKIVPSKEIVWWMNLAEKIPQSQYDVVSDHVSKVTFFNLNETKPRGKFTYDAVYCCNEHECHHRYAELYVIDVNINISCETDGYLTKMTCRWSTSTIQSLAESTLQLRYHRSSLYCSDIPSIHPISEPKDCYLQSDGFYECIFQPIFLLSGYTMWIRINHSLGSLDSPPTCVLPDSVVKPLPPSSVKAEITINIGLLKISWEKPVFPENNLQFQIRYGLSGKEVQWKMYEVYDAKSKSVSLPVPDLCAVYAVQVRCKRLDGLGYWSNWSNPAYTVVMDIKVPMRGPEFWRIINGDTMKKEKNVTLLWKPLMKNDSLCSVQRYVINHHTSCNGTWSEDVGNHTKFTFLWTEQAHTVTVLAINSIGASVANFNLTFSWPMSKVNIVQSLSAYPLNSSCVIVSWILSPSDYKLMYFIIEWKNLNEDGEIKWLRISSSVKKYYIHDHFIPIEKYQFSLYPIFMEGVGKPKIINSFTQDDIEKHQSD

Anti-human IgG secondary antibody alone
Binding Ratio [1]: 3 fold
Binding Ratio [2]: 3 fold

Anti-mouse IgG secondary antibody alone
Binding Ratio [1]: 2 fold
Binding Ratio [2]: 2 fold
